US20070248536A1 (SCIL PROTEINS, published 2007)

Tests used:
[1] = biological target: T1, BSA (bovine, UniProt P02769 25-607); experiment: concentration-dependent ELISA, detection with anti-gamma-II-crystallin antibody-POD
T1 construct: Control antigen
Method: The binding properties of the purified proteins were now tested as described above in a concentration-dependent ELISA. For this purpose, different concentrations (100 nM-10 μM) of the Affilin™ variations were employed and an anti-gamma-II-crystallin antibody (monoclonal antibody conjugate with POD) was employed as the detection antibody.

[2] = biological target: proNGF; experiment: concentration-dependent ELISA, proNGF coated, apparent KD
Method: FIG. 3: Concentration-dependent ELISA for the detection of the binding of SPC7-E9 to proNGF. The microtiter plate was coated with 10 μg/mi of proNGF. As the detection antibody served an anti-human gamma-II-crystallin antibody-POD conjugate in a dilution of 1:1000. The absorption values presented are mean values of two parallel measurements.

[3] = biological target: proNGF; experiment: SPR (BIACORE), SPC7-E9 coupled through amino groups to a CM5 chip, proNGF as analyte
Method: FIG. 9: Sensorgrams of the Biacore experiments for the binding of SPC7-E9 to a CM5 chip with proNGF. 280 RU of […] were immobilized and different concentrations of proNGF passed over the chip. As the running buffer served HBS-EP with a flow rate of 30 μl/min.
2.) Furthermore, SPC7-E9 could be coupled unspecifically via surface-exposed amino groups (lysines) by means of NHS/EDC to the carboxyl groups of the BIACORE dextrane matrix in the following manner: The CM5 chip was activated for 7 min with NHS/EDC, and afterwards purified SPC7-E9 (in 20 mM Na phosphate buffer, pH 6.0) was passed over the chip for further 7 min. After the coupling was carried out the remaining reactive groups were deactivated for 7 min with 1 M ethanolamine (pH 8.5). For the analysis of dissociation constants the target proNGF was passed over the chip in different concentrations, the binding was monitored online (FIG. 9), and the curves were subsequently evaluated with the BiaEvaluation Software. […] After kinetic measurements the chip was regenerated with 0.1 glycin (pH 2.2), 10 mM HCl, 10 mM NaOh, 6 M Gua/HCl, 6 M urea and 20% ethanol. In this way, the binding activity of the Affilin™ chip was unchanged even after several regeneration cycles

[4] = biological target: T2, human IgG Fc (human); experiment: SPR (BIACORE), IgG Fc immobilised on a CM5 chip, Affilin as analyte
T2 construct: domain: Fc; The ELISAs used human monoclonal IgG Fc (Roche); Kept as one molecule; also called human monoclonal IgG Fc portion (Roche); polyclonal IgG Fc
Method: In BIACORE experiments the dissociation constants of the three Affilin™ variations were determined. For this purpose, approx. 180 RU of human IgG Fc (50 μg/ml in 50 mM Na citrate, pH 5.0) was immobilized on a CM5 chip. Free binding sites were finally inactivated by 1 M ethanolamin (pH 8.5).
Then, at a flow of 30 μl/min, 6 different concentrations (166 nM-1 μM) were passed over the chip for 180 sec. Afterwards, at the same flow the chip was rinsed with HBS, 0.005% Surfactant P20 (Biacore) for 180 sec. From the resulting sensorgrams using the BiaEvaluation Software (Biacore, Uppsala, Sweden) the following dissociation constants of the Affilin™ variations to IgG Fc could be determined: SPC1-A1 with 230 nM, SPC1-A7 with 280 nM and SPC1-G3 with 800 nM. In competition experiments the specific binding of the Affilin™ variations to IgG Fc and not to the chip matrix could be detected (FIG. 2).

T1 sequence (P02769 25-607 limits assumed): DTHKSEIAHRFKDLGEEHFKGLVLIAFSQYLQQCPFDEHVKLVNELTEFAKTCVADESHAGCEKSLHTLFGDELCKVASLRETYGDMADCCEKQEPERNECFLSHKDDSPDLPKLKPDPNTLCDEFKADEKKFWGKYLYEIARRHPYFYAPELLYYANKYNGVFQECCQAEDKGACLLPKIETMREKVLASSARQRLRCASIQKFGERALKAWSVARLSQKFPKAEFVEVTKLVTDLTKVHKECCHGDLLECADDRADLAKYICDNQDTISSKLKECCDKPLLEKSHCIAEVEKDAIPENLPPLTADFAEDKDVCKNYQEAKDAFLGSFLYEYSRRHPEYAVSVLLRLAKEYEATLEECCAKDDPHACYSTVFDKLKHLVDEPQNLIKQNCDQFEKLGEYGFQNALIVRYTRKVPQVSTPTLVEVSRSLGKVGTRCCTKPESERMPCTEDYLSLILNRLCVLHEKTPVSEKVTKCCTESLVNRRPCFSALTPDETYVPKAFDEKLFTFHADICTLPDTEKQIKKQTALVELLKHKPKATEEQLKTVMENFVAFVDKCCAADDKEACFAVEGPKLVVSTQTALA
Sequence of proNGF (P01138 19-241): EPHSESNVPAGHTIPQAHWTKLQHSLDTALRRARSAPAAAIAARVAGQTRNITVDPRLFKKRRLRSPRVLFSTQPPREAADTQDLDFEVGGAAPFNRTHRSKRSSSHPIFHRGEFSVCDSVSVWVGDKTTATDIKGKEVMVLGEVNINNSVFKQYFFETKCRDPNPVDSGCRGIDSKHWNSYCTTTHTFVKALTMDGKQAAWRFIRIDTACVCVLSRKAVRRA

binding result [1] | Kd [2] [nM] | Kd [3] [nM] | Kd [4] [nM] | Binder
no binding |  |  |  | human wildtype gamma-II-crystallin (other, UniProt P07316 1-175, looked up, also called human wildtype gamma-crystallin) MGKITFYEDRAFQGRSYECTTDCPNLQPYFSRCNSIRVESGCWMIYERPNYQGHQYFLRRGEYPDYQQWMGLSDSIRSCCLIPPHSGAYRMKIYDRDELRGQMSELTDDCISVQDRFHLTEIHSLNVLEGSWILYEMPNYRGRQYLLRPGEYRRFLDWGAPNAKVGSLRRVMDLY
 | 200 | 1.4 |  | Affilin variation SPC7-E9 (designed binder, Directed against proNGF; also called SPCJ-E9 (including His6)) MGFICFLEDRAFQGRSYACDTDCPNLQPYFSRCNSISVLSGCWMIYERPNYQGHQYFLRRGEYPDYQQWMGLSDSIRSCCLIPPHSGAYRMKIYDRDELRGQMSELTDDCLSVQDRFHLTEIHSLNVLEGSWILYEMPNYRGRQYLLRPGEYRRFLDWGAPNAKVGSLRRVMDLYLEHHHHHH
no binding (tested: 100 nM-10 µM) |  |  | 800 | Affilin variation SPC1-G3 (designed binder, Selected from library CR20) MGSIIFLEDRAFQGRIYGCTTDCPNLQPYFSRCNSIVVQSGCWMIYERPNYQGHRHQYFLRRGEYPDYQQWMGLSDSIRSCCLIPPHSGAYRMKIYDRDELRGQMSELTDDCLSVQDRFHLTEIHSLNVLEGSWILYEMPNYRGRQYLLRPGEYRRFLDWGAPNAKVGSLRRVMDLYA

Further lines, the binder ahead of its results:

Binder | binding result [1] | Kd [2] [nM] | Kd [3] [nM] | Kd [4] [nM]
Affilin variation SPC1-A1 (designed binder, Selected from the human gamma-II-crystallin library CR20) MGFIWFMEDRAFQGRRYDCGTDCPNLQPYFSRCNSIKVKSGCWMIYERPNYQGHRHQYFLRRGEYPDYQQWMGLSDSIRSCCLIPPHSGAYRMKIYDRDELRGQMSELTDDCLSVQDRFHLTEIHSLNVLEGSWILYEMPNYRGRQYLLRPGEYRRFLDWGAPNAKVGSLRRVMDLYA | no binding (tested: 100 nM-10 µM) |  |  | 230
Affilin variation SPC1-A7 (designed binder, Selected from library CR20; has a free cysteine in variable position 4; not shown: C-terminal tag of six histidines 'already present') MGLICFSEDRAFQGRRYMCLTDCPNLQPYFSRCNSINVWSGCWMIYERPNYQGHRHQYFLRRGEYPDYQQWMGLSDSIRSCCLIPPHSGAYRMKIYDRDELRGQMSELTDDCLSVQDRFHLTEIHSLNVLEGSWILYEMPNYRGRQYLLRPGEYRRFLDWGAPNAKVGSLRRVMDLYA | no binding (tested: 100 nM-10 µM) |  |  | 280
